Where a chain is given by its changes, count along the chain named. Names and notes keep the numbering of the source. Values joined by “and” are separate entries in the source; they are usually repeats but may differ in a detail not shown here. Equal values may be shown once.
T1: Plasma antichymotrypsin (ACT) (UniProt P01011 24-423)
T1 construct: also called plasma ACT
T1 sequence (looked up): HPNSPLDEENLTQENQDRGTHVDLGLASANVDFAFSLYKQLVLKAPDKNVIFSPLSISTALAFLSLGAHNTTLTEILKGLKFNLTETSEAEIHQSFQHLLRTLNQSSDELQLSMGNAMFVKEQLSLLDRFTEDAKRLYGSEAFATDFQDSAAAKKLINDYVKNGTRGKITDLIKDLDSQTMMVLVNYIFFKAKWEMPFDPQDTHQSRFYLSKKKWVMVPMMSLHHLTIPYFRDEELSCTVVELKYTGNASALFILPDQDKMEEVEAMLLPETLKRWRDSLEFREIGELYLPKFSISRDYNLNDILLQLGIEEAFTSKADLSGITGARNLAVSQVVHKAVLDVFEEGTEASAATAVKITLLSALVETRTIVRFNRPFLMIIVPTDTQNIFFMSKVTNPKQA

B1: chymase C22S/K40L/F41H/L99N/F173Y/S218L/A226R (enzyme)
chain: IIGGTESKPHSRPYMAYLEIVTSNGPSLHCGGFLIRRNFVLTAAHCAGRSITVTLGAHNITEEEDTWQKLEVIKQFRHPKYNTSTNHHDIMLLKLKEKASLTLAVGTLPFPSQFNFVPPGRMCRVAGWGRTGVLKPGSDTLQEVKLRLMDPQACSHYRDFDHNLQLCVGNPRKTKSAFKGDSGGPLLCAGVAQGIVSYGRLDAKPPRVFTRISHYRPWINQILQAN
B2: chymase C22S/S189T/A190S/A226R (enzyme)
chain: B1 chain with L28K, H29F, N86L, Y157F, S176T, A177S, L201S
B3: chymase C22S/K40L/F41K/L99H/F173Y/S218L/A226R (enzyme)
chain: B1 chain with H29K, N86H
B4: chymase C22S/K40L/F41R/L99N/F173Y/D175N/S218L/A226R (enzyme)
chain: B1 chain with H29R, D159N
notes: also called MS No. 15
B5: chymase C22S/K40L/F41R/L99N/F173Y/S218L/A226R (enzyme)
chain: B1 chain with H29R
B6: chymase C22S/K40M/F41R/L99N/G151S/F173Y/S218L/A226R (enzyme)
chain: B1 chain with L28M, H29R, G137S
B7: chymase C22S/K40L/F41K/L99N/F173Y/D175N/S218L/A226R (enzyme)
chain: B1 chain with H29K, D159N
notes: also called MS No. 8
B8: chymase C22S/K40L/F41K/L99H/G151S/F173Y/S218L/A226R (enzyme)
chain: B1 chain with H29K, N86H, G137S
B9: chymase C22S/K40L/F41L/L99N/G151H/F173Y/S218V/A226R (enzyme)
chain: B1 chain with H29L, G137H, L201V
B10: MTSP-1 F97L/T98G/F99V/C122S/C[17]S/C[19]S/-null_D96insD (enzyme)
chain: VVGGTDADEGEWPWQVSLHALGQGHICGASLISPNWLVSAAHCYIDDRGFRYSDPTQWTAFLGLHDQSQRSAPGVQERRLKRIISHPFFNDDLGVDYDIALLELEKPAEYSSMVRPISLPDASHVFPAGKAIWVTGWGHTQYGGTGALILQKGEIRVINQTTCENLLPQQITPRMMCVGFLSGGVDSCQGDSGGPLSSVEADGRIFQAGVVSWGDGCAQRNKPGVYTRLPLFRDWIKENTGV
B11: MTSP-1 A77aT/F94Y/C122S/D125G (enzyme)
chain: VVGGTDADEGEWPWQVSLHALGQGHICGASLISPNWLVSAAHCYIDDRGFRYSDPTQWTAFLGLHDQSQRSTPGVQERRLKRIISHPFYNDFTFDYDIALLELEKPAEYSSMVRPISLPGASHVFPAGKAIWVTGWGHTQYGGTGALILQKGEIRVINQTTCENLLPQQITPRMMCVGFLSGGVDSCQGDSGGPLSSVEADGRIFQAGVVSWGDGCAQRNKPGVYTRLPLFRDWIKENTGV
B12: MTSP-1 I41A/F97D/F99L/C122S (enzyme)
chain: B11 chain with I26A, T72A, Y89F, F92D, F94L, G120D
B13: MTSP-1 I41G/F97E/F99L/C122S/C[17]S/C[19]S (enzyme)
chain: B11 chain with I26G, T72A, Y89F, F92E, F94L, G120D
B14: MTSP-1 I41N/F97D/F99L/C122S/C[17]S/C[19]S (enzyme)
chain: B11 chain with I26N, T72A, Y89F, F92D, F94L, G120D
B15: MTSP-1 I41G/F97D/F99L/C122S/Y146D/C[17]S/C[19]S (enzyme)
chain: B11 chain with I26G, T72A, Y89F, F92D, F94L, G120D, Y141D

target: T1, Plasma antichymotrypsin (ACT); experiment: serpin inhibition of the protease

Row | kapp | Binder
1 | 193 M⁻¹ s⁻¹ | B1
2 | 935 M⁻¹ s⁻¹ | B2
3 | 147 M⁻¹ s⁻¹ | B3
4 | 37 M⁻¹ s⁻¹ | B4
5 | 190 M⁻¹ s⁻¹ | B5
6 | 317 M⁻¹ s⁻¹ | B6
7 | 28 M⁻¹ s⁻¹ | B7
8 | 139 M⁻¹ s⁻¹ | B8
9 | 252 M⁻¹ s⁻¹ | B9

target: T2, Human Factor B (human, UniProt P00751 26-764); experiment: cell-based or functional assay
T2 sequence (P00751 26-764 limits assumed): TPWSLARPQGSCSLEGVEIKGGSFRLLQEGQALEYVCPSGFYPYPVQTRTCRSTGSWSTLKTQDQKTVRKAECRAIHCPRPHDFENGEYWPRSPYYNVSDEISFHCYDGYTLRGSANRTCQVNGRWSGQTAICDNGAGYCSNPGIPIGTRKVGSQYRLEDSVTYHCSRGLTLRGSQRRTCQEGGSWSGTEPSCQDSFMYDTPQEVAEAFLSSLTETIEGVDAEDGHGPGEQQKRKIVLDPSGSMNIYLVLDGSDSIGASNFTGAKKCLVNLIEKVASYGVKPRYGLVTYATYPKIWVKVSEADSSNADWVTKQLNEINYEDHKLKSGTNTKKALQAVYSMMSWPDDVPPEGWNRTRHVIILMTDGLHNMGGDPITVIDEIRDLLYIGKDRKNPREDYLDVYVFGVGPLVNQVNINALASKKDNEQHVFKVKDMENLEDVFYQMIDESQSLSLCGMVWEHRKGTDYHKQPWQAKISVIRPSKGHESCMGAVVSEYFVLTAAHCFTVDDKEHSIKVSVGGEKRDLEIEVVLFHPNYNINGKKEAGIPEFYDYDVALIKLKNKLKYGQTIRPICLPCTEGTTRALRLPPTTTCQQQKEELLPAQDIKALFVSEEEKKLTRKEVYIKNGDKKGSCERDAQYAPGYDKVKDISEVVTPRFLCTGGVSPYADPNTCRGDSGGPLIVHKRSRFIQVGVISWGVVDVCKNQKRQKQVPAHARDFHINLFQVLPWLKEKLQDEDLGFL

Row | fB Cleavage, 80% plasma EC50 | fB Cleavage EC50 | Binder
10 | 13900 nM |  | B1
11 |  | 605 nM | B2
12 | 14800 nM |  | B3
13 | 4090 nM and 3760 nM | 119 nM | B4
14 | 15600 nM | 379 nM | B5
15 | 11200 nM |  | B6
16 | 5700 nM |  | B7
17 | 17200 nM |  | B8
18 | 17100 nM |  | B9

target: T2, Human Factor B; experiment: cell-based or functional assay; remark: another data set of the same source

Row | Hu fB Add-Back EC50 | Binder
19 | 4590 nM and 3490 nM | B10
20 | 65.9 nM and 125 nM | B11
21 | 283 nM | B12
22 | 362 nM and 358 nM and 292 nM | B13
23 | 223 nM | B14
24 | 283 nM and 395 nM | B15

Source: patent US20240117334A1 (VERTEX PHARMACEUTICALS, published 2024)
